Read-outs that look alike come from different tables or passages of the source.
Key:
Experiment in all cases: cell-based or functional assay
[1] = biological target: cation-independent mannose-6-phosphate/IGF-II receptor on GM4668 human skin fibroblasts (human) (UniProt P11717)
[2] = biological target: cation-independent mannose-6-phosphate/IGF-II receptor on GM4668 human skin fibroblasts (human) (UniProt P11717); remark: listed apart in the source
[3] = biological target: cation-independent mannose-6-phosphate/IGF-II receptor on GM4668 human skin fibroblasts (human) (UniProt P11717); remark: listed apart in the source
[4] = biological target: cation-independent mannose-6-phosphate/IGF-II receptor on GM4668 human skin fibroblasts (human) (UniProt P11717); remark: listed apart in the source

Chain of UniProt P11717 (P11717 41-2491): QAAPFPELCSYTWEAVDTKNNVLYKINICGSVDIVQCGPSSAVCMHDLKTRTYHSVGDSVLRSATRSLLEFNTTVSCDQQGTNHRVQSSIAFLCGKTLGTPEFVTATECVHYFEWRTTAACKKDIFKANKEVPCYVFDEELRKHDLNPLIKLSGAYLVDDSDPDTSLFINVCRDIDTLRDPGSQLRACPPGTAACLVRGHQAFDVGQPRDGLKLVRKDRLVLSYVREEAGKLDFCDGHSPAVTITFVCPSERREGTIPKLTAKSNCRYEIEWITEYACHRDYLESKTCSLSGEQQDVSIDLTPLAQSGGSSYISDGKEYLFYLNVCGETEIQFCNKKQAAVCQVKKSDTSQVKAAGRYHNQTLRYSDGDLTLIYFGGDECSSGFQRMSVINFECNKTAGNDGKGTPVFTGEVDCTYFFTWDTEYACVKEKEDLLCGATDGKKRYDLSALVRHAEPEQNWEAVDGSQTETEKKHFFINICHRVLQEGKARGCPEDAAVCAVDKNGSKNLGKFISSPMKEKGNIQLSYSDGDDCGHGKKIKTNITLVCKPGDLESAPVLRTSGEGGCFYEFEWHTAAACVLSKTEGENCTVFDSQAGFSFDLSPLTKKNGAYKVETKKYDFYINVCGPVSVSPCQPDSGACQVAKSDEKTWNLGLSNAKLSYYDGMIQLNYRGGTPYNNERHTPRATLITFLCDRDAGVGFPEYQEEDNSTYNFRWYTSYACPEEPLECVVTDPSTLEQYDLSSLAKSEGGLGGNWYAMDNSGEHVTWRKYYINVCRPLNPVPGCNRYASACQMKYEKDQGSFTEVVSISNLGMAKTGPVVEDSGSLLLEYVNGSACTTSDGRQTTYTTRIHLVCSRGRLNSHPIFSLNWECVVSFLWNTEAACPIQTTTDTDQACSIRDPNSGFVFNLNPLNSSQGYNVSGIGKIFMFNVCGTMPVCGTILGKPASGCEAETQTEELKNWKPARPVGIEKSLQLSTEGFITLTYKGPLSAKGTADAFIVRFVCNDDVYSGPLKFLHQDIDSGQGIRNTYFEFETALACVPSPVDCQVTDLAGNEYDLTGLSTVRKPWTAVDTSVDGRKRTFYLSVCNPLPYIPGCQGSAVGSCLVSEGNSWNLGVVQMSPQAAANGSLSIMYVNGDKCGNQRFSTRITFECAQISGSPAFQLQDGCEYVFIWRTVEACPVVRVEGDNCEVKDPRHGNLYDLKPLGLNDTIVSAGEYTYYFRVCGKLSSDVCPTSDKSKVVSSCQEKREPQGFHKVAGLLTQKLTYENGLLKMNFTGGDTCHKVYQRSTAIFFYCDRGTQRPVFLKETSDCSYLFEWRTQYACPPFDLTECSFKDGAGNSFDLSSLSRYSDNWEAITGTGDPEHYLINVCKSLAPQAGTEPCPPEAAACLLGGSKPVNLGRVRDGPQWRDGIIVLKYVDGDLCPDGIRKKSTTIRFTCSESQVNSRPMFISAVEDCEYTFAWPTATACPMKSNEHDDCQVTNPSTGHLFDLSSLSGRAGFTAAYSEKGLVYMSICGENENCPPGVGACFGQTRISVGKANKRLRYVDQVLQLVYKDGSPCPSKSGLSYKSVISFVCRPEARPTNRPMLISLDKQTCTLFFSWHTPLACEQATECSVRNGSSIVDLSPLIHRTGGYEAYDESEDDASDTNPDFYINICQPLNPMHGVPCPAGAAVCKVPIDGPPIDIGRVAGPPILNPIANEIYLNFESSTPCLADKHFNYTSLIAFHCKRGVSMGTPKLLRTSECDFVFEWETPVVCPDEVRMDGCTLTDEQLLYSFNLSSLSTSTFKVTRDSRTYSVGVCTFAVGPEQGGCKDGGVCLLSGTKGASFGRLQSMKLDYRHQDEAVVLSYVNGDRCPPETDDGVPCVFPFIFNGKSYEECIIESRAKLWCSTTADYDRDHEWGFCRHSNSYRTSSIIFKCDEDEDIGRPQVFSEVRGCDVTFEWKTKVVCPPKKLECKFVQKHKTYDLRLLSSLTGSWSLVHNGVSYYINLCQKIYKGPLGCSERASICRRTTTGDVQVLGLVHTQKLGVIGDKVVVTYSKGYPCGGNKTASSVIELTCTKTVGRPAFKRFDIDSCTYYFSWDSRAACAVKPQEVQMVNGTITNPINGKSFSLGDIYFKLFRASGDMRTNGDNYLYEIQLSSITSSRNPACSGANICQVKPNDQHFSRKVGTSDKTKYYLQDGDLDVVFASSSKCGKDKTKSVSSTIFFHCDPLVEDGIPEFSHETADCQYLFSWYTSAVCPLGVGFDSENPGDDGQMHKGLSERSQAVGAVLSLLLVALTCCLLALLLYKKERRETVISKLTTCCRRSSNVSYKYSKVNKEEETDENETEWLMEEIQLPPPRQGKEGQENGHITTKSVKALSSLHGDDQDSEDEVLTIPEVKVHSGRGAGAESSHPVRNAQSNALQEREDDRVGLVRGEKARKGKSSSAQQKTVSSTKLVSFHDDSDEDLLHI

% IGF-II inhibition of uptake [2] [%]	+IGF-II Uptake (units/mg) [2] [units/mg]	Uptake (units/mg), 21 h [2] [units/mg]	% IGF-II + M6P inhibition of uptake [3] [%]	% IGF-II inhibition of uptake [3] [%]	% M6P inhibition of uptake [3] [%]	+IGF-II (units/mg), uptake with excess IGF-II [3] [units/mg]	+IGF-II + M6P (units/mg), uptake with both inhibitors [3] [units/mg]	+M6P (units/mg), uptake with 8 mM M6P [3] [units/mg]	Uptake (units/mg), 22.5 h [3] [units/mg]	Molecule	also measured
–	–	–	–	–	–	–	–	–	–	CHO GUS-GILTΔ1-7 (from UniProt P08236 23-651)	% IGF-II inhibition of uptake [1]: 73%; % M6P inhibition of uptake [1]: 28%; +IGF-II (units/mg), uptake with excess IGF-II [1]: 84 units/mg; +M6P (units/mg), uptake with excess M6P [1]: 223 units/mg; Uptake (units/mg), 18 h [1]: 310 units/mg
75	1010	4080	100	70	60	473	0	639	1580	CHO GUSΔC18-GILTΔ1-7 (from UniProt P08236 23-633)	% IGF-II inhibition of uptake [1]: 63%; % M6P inhibition of uptake [1]: 41%; +IGF-II (units/mg), uptake with excess IGF-II [1]: 258 units/mg; +M6P (units/mg), uptake with excess M6P [1]: 412 units/mg; Uptake (units/mg), 18 h [1]: 704 units/mg
–	–	–	–	–	–	–	–	–	–	GILT-GUS with Δ1-7 and Y27L mutations in the IGF-II portion, Leishmania-expressed (from UniProt P08236 23-651)	cell-associated GUS activity in GM4668 fibroblasts, relative to unmodified GUS [1]: 5 fold
–	–	–	–	–	–	–	–	–	–	GUS-IGF-II fusion protein (GUS-GILT), Leishmania-expressed	cell-associated GILT-GUS in GM4668 fibroblasts, no competitor (units/mg lysate) [1]: > 24; cell-associated GILT-GUS in GM4668 fibroblasts, with about 100-fold molar excess of IGF-II [1]: 5.4 U; cell-associated GUS activity in GM4668 fibroblasts, relative to unmodified GUS [1]: 10 fold
–	–	1430	–	–	–	–	–	–	–	HEK GUS-GILT (from UniProt P08236 23-651)	–
90.7	439	4730	99.1	86	60	217	15	952	1590	HEK GUS-GILTF19S (from UniProt P08236 23-651)	–
90.8	388	4230	100	98.2	31	22	0	846	1230	HEK GUS-GILTF19SE12K (from UniProt P08236 23-651)	–
–	–	1510	–	–	–	–	–	–	–	HEK GUS-GILTY27L (from UniProt P08236 23-651)	–
77	1210	5190	–	–	–	–	–	–	–	HEK GUSΔC18-GILTΔ1-7 (from UniProt P08236 23-633)	–
–	–	–	–	–	–	–	–	–	–	CHO GUS (enzyme, UniProt P08236 23-651, looked up) LQGGMLYPQESPSRECKELDGLWSFRADFSDNRRRGFEEQWYRRPLWESGPTVDMPVPSSFNDISQDWRLRHFVGWVWYEREVILPERWTQDLRTRVVLRIGSAHSYAIVWVNGVDTLEHEGGYLPFEADISNLVQVGPLPSRLRITIAINNTLTPTTLPPGTIQYLTDTSKYPKGYFVQNTYFDFFNYAGLQRSVLLYTTPTTYIDDITVTTSVEQDSGLVNYQISVKGSNLFKLEVRLLDAENKVVANGTGTQGQLKVPGVSLWWPYLMHERPAYLYSLEVQLTAQTSLGPVSDFYTLPVGIRTVAVTKSQFLINGKPFYFHGVNKHEDADIRGKGFDWPLLVKDFNLLRWLGANAFRTSHYPYAEEVMQMCDRYGIVVIDECPGVGLALPQFFNNVSLHHHMQVMEEVVRRDKNHPAVVMWSVANEPASHLESAGYYLKMVIAHTKSLDPSRPVTFVSNSNYAADKGAPYVDVICLNSYYSWYHDYGHLELIQLQLATQFENWYKKYQKPIIQSEYGAETIAGFHQDPPLMFTEEYQKSLLEQYHLGLDQKRRKYVVGELIWNFADFMTEQSPTRVLGNKKGIFTRQRQPKSAAFLLRERYWKIANETRYPHSVAKSQCLENSLFT	% IGF-II inhibition of uptake [4]: 5%; % M6P inhibition of uptake [4]: 99.7%; % inhibition of uptake by excess IGF-II [4]: 4.5%; +IGF-II (units/mg), uptake with excess IGF-II [4]: 336 units/mg; +M6P (units/mg), uptake with excess M6P [4]: 1 units/mg; Uptake (units/mg), 18 h [4]: 352 units/mg

Source: patent US20090029467A1
